Data taken from patent publication EP1292709B1.
Where no end group is shown, it is not given here.

Biological target: receptors that recognize the sequence GRGDSPG
Experiment: cell-based or functional assay

GC(PEG acrylate)GYGRGDSPG […] was tested, and the adhesion and spreading of human foreskin fibroblasts on conjugate addition gels, 6 hours post-seeding was 50%.
